Source: patent US12427210B2, “Compounds comprising a fibroblast activation protein ligand and use thereof” (priority 2019, dated 2025)

Columns and labels:
[1] = molecular target: Matrix metalloprotease 9 (mutant Q279R) (Homo sapiens (Human)) (UniProt P14780)
[2] = molecular target: serine protease NS3 (a.a. 3-181) from Hepatitis C virus genotype 2a (Hepatitis C virus genotype 2a)
[3] = molecular target: serine protease NS3 (a.a. 3-181) from Hepatitis C virus genotype 1a (mutant D168V) (Hepatitis C virus genotype 1a)
[4] = molecular target: DPP7 (Homo sapiens (Human)) (UniProt Q9UHL4)
[5] = molecular target: Ubiquitin carboxyl-terminal hydrolase 8 (Homo sapiens (Human)) (UniProt P40818)
[6] = molecular target: serine protease NS3 (a.a. 3-181) from Hepatitis C virus genotype 1b (mutant R155Q) (Hepatitis C virus genotype 1b)
[7] = molecular target: serine protease NS3 (a.a. 3-181) from Hepatitis C virus genotype 1b (Hepatitis C virus genotype 1b)
[8] = molecular target: Ubiquitin carboxyl-terminal hydrolase 7 (Homo sapiens (Human)) (UniProt Q93009)
[9] = molecular target: T1, Caspase-7 (Homo sapiens (Human)) (UniProt P55210)
T1 sequence: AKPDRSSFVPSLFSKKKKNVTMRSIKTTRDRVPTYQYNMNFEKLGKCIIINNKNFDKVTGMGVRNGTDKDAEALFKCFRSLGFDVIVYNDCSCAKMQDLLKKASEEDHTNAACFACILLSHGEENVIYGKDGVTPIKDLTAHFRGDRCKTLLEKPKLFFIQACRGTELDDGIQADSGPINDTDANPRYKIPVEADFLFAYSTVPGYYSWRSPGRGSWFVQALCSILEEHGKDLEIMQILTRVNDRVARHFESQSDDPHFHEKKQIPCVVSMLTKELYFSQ

[10] = molecular target: Ataxin3 (Homo sapiens (Human)) (UniProt P54252)
Sequence of Ataxin3 (Homo sapiens (Human)) (P54252 whole entry): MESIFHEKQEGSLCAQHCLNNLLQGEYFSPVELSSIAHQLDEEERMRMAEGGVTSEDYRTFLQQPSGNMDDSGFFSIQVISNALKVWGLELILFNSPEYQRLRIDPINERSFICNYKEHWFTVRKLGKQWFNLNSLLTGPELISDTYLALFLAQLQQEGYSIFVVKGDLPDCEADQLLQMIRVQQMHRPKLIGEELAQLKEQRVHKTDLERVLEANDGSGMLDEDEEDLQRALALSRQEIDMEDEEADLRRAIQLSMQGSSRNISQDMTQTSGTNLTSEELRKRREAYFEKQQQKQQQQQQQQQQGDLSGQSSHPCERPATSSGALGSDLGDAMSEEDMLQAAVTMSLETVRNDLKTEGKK

[11] = molecular target: T2, Deubiquitinase OTUD6B (Homo sapiens (Human)) (UniProt Q8N6M0)
T2 sequence: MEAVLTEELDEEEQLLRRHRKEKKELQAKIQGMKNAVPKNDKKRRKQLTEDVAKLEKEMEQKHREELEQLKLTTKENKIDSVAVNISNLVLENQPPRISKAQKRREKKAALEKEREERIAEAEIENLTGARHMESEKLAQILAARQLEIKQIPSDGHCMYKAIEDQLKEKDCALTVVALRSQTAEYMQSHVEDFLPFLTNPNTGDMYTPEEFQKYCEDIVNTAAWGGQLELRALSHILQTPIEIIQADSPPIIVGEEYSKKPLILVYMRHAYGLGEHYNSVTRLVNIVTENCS

[12] = molecular target: Cathepsin V (Homo sapiens (Human)) (UniProt O60911)
[13] = molecular target: Matrix metalloprotease 2 (Homo sapiens (Human)) (UniProt P08253)
Sequence of Matrix metalloprotease 2 (Homo sapiens (Human)) (P08253 110-660): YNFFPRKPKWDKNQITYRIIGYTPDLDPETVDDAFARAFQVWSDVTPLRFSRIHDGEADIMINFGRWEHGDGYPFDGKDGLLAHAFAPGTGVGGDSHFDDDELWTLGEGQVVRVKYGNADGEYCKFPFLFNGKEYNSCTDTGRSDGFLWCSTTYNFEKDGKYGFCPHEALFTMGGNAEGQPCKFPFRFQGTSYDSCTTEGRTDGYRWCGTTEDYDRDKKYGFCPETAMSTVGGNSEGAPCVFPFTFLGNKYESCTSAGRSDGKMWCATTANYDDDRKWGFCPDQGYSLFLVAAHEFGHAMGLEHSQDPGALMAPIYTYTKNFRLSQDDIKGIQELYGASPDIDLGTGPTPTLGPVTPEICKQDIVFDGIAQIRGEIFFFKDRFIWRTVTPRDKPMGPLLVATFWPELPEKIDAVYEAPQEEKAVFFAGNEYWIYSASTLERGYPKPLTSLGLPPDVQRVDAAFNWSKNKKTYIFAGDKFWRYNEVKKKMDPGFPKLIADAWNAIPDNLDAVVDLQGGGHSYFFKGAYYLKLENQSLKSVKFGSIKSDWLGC

[14] = molecular target: serine protease NS3 (a.a. 3-181) from Hepatitis C virus genotype 1b (mutant R155K) (Hepatitis C virus genotype 1b)
[15] = molecular target: Cathepsin S (Homo sapiens (Human)) (UniProt P25774)
[16] = molecular target: T3, A20 (Homo sapiens (Human)) (UniProt P21580)
T3 sequence: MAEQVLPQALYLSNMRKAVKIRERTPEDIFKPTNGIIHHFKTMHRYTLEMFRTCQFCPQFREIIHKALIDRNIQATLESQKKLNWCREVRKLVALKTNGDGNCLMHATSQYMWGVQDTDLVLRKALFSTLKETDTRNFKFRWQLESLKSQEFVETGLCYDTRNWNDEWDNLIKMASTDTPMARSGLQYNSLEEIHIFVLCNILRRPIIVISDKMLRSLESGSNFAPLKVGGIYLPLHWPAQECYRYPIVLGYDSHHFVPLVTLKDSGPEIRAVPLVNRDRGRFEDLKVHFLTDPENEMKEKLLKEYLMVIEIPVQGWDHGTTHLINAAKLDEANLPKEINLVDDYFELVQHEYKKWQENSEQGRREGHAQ

[17] = molecular target: T4, Caspase-6 (Homo sapiens (Human)) (UniProt P55212)
T4 sequence: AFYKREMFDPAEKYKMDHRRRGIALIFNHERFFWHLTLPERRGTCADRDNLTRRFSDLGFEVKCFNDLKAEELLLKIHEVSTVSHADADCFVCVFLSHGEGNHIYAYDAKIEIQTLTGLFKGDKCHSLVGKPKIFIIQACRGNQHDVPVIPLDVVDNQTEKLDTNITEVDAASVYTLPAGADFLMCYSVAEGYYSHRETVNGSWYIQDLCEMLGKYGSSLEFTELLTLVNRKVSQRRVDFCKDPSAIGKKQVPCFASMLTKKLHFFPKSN

[18] = molecular target: Cathepsin B (Homo sapiens (Human)) (UniProt P07858)
[19] = molecular target: Ubiquitin carboxy-terminal hydrolase L1 (Homo sapiens (Human)) (UniProt P09936)
PDE4D2 (h) (human) = PDE4D2 (h) (human) (UniProt Q08499)
Sequence of PDE4D2 (h) (human) (Q08499 303-809): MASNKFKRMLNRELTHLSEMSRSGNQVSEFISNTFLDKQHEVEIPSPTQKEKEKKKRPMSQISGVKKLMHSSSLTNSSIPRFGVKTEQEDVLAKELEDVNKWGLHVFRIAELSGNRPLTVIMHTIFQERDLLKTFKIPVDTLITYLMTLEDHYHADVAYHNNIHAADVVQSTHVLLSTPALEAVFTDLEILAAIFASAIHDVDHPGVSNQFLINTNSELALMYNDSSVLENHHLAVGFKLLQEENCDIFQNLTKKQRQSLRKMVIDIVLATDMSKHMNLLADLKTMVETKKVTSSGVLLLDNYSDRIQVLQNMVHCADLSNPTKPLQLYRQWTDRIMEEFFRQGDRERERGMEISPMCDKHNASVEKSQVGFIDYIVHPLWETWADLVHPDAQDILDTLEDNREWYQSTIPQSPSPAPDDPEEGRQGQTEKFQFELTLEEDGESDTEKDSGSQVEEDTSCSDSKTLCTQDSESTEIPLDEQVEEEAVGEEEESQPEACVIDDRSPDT

COX2(h) (human) = molecular target: T5, COX2(h) (human) (UniProt P35354)
T5 sequence: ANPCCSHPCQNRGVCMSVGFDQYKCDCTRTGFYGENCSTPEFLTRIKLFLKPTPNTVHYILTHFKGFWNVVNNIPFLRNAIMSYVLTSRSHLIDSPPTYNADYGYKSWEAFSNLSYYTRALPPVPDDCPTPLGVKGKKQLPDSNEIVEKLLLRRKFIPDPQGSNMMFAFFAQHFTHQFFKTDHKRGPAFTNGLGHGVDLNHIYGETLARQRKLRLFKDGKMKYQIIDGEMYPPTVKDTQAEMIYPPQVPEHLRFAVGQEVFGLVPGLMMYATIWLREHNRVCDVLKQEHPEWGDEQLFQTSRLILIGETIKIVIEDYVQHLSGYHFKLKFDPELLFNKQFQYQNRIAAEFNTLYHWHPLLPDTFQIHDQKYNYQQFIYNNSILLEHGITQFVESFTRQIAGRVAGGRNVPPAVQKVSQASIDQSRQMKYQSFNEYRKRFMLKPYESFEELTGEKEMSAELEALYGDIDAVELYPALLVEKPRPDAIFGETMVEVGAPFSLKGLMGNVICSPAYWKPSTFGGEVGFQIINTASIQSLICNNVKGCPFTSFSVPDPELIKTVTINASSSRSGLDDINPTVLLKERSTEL

PDE3A (h) (human) = PDE3A (h) (human) (UniProt Q14432)
COX1(h) (human) = COX1(h) (human) (UniProt P23219)
Sequence of COX1(h) (human) (P23219 24-599 limits assumed): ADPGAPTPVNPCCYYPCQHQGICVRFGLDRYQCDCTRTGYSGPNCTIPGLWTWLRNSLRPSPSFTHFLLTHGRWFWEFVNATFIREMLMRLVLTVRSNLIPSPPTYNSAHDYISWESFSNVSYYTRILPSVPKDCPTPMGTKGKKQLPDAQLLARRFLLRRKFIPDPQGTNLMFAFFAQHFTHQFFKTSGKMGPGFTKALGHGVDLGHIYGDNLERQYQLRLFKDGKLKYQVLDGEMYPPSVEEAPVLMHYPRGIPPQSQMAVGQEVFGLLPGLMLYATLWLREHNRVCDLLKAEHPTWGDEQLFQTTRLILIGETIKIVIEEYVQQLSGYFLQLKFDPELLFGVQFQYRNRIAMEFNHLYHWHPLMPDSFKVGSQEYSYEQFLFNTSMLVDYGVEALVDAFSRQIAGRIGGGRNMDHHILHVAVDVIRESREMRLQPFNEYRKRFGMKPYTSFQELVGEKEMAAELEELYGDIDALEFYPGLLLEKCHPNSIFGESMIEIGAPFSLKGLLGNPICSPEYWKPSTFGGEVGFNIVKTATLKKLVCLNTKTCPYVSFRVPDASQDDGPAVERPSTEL

[20] = molecular target: Acetylcholinesterase (h) (human) (UniProt P22303)
Sequence of Acetylcholinesterase (h) (human) (P22303 32-614 limits assumed): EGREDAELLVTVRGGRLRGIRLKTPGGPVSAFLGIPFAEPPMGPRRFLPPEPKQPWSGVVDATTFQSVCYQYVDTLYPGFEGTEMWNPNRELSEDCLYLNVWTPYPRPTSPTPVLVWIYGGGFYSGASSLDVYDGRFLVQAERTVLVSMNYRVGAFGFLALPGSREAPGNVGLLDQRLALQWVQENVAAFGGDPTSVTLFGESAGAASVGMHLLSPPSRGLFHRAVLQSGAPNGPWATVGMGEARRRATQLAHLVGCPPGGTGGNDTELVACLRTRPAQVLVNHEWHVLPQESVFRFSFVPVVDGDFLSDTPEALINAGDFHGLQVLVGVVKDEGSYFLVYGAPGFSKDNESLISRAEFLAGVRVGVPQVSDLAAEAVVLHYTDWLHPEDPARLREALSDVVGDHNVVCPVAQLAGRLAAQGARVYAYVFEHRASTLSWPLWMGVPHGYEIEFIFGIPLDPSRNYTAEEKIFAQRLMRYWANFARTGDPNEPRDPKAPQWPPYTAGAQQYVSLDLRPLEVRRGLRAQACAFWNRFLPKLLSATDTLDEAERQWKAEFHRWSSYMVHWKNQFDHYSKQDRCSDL

Lck kinase (h) (human) = Lck kinase (h) (human) (UniProt P06239)

Row | Substance | Percentage inhibition (%) (% inhibition at 10 µM) [1] | Percentage inhibition (%) (% inhibition at 10 µM) [2] | Percentage inhibition (%) (% inhibition at 10 µM) [3] | Percentage inhibition (%) (% inhibition at 10 µM) [4] | Percentage inhibition (%) (% inhibition at 10 µM) [5] | Percentage inhibition (%) (% inhibition at 10 µM) [6] | Percentage inhibition (%) (% inhibition at 10 µM) [7] | Percentage inhibition (%) (% inhibition at 10 µM) [8] | Percentage inhibition (%) (% inhibition at 10 µM) [9] | Percentage inhibition (%) (% inhibition at 10 µM) [10] | Percentage inhibition (%) (% inhibition at 10 µM) [11] | Percentage inhibition (%) (% inhibition at 10 µM) [12] | Percentage inhibition (%) (% inhibition at 10 µM) [13] | Percentage inhibition (%) (% inhibition at 10 µM) [14] | Percentage inhibition (%) (% inhibition at 10 µM) [15] | Percentage inhibition (%) (% inhibition at 10 µM) [16] | Percentage inhibition (%) (% inhibition at 10 µM) [17] | Percentage inhibition (%) (% inhibition at 10 µM) [18] | Percentage inhibition (%) (% inhibition at 10 µM) [19] | % inhibition of control enzyme activity (PDE4D2 (h) (human)) | further results
1 | Hex-[Cys(tMeBn(DOTA-AET))-Pro-Pro-Thr-Gln-Phe-Cys]-OH (3BP-3554) (peptide) | 2 | -40 | -372 | -7 | 1 | -5 | -9 | 1 | -7 | -1 | 0 | -1 | -2 | 0 | -23 | 0 | -3 | 2 | 4 | -4 % at 10 µM | % inhibition of control enzyme activity (COX2(h) (human)): -22 % at 10 µM; % inhibition of control enzyme activity (PDE3A (h) (human)): -37 % at 10 µM; % inhibition of control enzyme activity (COX1(h) (human)): 8 % at 10 µM; % inhibition of control enzyme activity [20]: 1 % at 10 µM; % inhibition of control enzyme activity (Lck kinase (h) (human)): -4 % at 10 µM
2 | Hex-[Cys(tMeBn(DOTA-PP))-Pro-Pro-Thr-Gln-Phe-Cys]-Asp-NH2 (3BP-3407) (peptide) | 2 | -2 | -68 | -3 | 6 | 2 | 5 | 5 | -3 | 10 | 15 | -18 | 3 | 5 | 18 | -4 | -1 | 36 | 4 | -5 % at 10 µM | % inhibition of control enzyme activity (COX2(h) (human)): -14 % at 10 µM; % inhibition of control enzyme activity (PDE3A (h) (human)): -3 % at 10 µM; % inhibition of control enzyme activity (COX1(h) (human)): 10 % at 10 µM; % inhibition of control enzyme activity [20]: -6 % at 10 µM; % inhibition of control enzyme activity (Lck kinase (h) (human)): 10 % at 10 µM
